Target: Angiotensin-I Converting Enzyme (ACE) (Homo sapiens, UniProt P12821)
Experiment: Determination of ACE inhibitory activity of hydrolysates in a microtiter plate (Hip-His-Leu substrate)
Assay type: biochemical
Settings: no digestion simulation, in %
Protocol: ACE inhibitory activity can be measured in vitro using a spectrophotometry based assay. The assay is based on the liberation of hippuric acid from Hip-His-Leu substrate catalyzed by ACE.
Calculation of Ace Inhibition:
[formula] 2.4 Further (Optimized) Hydrolysis of Ovomucin with Alcalase Protocol for the DH Determination by TNBS Method Solutions: • 0.21 M Sodium phosphate buffer pH8.2 • 0.21 M NaH2PO4.H2O (25 ml solution) • 0.21 M Na2HPO4.2H2O (500 ml solution) • mix solutions to pH 8.2 • 0.05% TNBS • Dilute TNBS stock (5% solution) to 0.05% in MQ cover reagent tube with aluminium foil and store in dark place • 1% SDS solution • Leucine standard (stock 3 mM Leucine) • Dissolve Leucine in 1% SDS solution. Dilute the stock solution 20×, 10×, 4× en 2× with 1% SDS for analysis • Blank • Dilute non-hydrolysed sample in 1% SDS to a protein concentration of 0.5 mg/ml • Samples • Dilute hydrolysed protein in 1% SDS to a concentration of 0.5 mg/ml in duplo Analysis: • Pipet 15 μl sample (Leucine standard or sample) in microwell. Measure each dilution in twofold in plate (Costar, non-binding plate) • Add 45 μl 0.21 M sodium phosphate buffer pH 8.2 • Add 45 μl 0.05% TNBS. Cover plate with aluminium foil. Incubate plate for 60 minutes in a 50° C. stove. • After incubation add 90 μl 0.1 N HCl • Measure absorption at 340 nm (microplate reader) Calculation of degree of hydrolysis (DH): • Make calibration line of Leucine standard. This calibration line is used to convert absorption values of samples to NH2-equivalents.

Chain of Angiotensin-I Converting Enzyme (ACE) (P12821 30-1306, species assumed): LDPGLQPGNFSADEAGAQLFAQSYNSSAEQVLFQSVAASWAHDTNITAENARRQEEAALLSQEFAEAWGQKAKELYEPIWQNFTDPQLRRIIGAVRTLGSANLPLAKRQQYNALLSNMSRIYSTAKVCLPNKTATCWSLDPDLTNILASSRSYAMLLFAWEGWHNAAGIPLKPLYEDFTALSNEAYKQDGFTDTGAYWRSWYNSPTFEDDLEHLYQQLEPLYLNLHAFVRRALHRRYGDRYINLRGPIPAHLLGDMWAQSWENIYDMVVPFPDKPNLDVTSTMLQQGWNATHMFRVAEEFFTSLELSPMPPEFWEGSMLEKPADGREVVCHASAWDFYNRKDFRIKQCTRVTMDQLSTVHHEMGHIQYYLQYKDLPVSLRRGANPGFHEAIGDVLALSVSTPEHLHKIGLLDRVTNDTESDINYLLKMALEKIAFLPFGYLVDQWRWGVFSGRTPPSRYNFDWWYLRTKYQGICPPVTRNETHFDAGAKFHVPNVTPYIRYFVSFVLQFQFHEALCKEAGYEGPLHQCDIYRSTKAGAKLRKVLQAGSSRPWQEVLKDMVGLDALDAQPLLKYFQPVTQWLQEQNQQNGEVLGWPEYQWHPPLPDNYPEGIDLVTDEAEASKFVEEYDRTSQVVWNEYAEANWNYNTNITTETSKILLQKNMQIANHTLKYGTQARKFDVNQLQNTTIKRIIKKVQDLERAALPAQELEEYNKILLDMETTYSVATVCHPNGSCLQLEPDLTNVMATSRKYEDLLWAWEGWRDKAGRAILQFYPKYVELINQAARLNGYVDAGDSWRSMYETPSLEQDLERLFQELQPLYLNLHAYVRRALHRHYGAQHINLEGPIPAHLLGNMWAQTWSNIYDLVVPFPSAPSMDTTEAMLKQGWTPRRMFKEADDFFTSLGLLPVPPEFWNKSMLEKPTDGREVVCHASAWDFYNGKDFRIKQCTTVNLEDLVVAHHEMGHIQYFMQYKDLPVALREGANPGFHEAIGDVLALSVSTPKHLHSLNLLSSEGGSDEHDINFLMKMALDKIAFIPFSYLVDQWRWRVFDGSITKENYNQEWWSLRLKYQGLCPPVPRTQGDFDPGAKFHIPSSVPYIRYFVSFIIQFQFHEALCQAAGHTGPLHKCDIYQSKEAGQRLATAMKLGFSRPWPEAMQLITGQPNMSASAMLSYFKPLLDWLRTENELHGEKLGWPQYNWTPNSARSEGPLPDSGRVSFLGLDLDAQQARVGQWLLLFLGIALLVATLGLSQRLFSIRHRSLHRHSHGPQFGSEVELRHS

- ACE inhibition (conc. 0.019 mg/ml): 0.7
- ACE inhibition (conc. 0.056 mg/ml): −4.1
- ACE inhibition (conc. 0.167 mg/ml): 0.7
- ACE inhibition (conc. 0.500 mg/ml): −0.3
B1: OT-UM: ovotransferrin, not pre-hydrolysed, nor in vitro digested (protein)
chain: APPKSVIRWCTISSPEEKKCNNLRDLTQQERISLTCVQKATYLDCIKAIANNEADAISLDGGQAFEAGLAPYKLKPIAAEVYEHTEGSTTSYYAVAVVKKGTEFTVNDLQGKTSCHTGLGRSAGWNIPIGTLLHRGAIEWEGIESGSVEQAVAKFFSASCVPGATIEQKLCRQCKGDPKTKCARNAPYSGYSGAFHCLKDGKGDVAFVKHTTVNENAPDQKDEYELLCLDGSRQPVDNYKTCNWARVAAHAVVARDDNKVEDIWSFLSKAQSDFGVDTKSDFHLFGPPGKKDPVLKDLLFKDSAIMLKRVPSLMDSQLYLGFEYYSAIQSMRKDQLTPSPRENRIQWCAVGKDEKSKCDRWSVVSNGDVECTVVDETKDCIIKIMKGEADAVALDGGLVYTAGVCGLVPVMAERYDDESQCSKTDERPASYFAVAVARKDSNVNWNNLKGKKSCHTAVGRTAGWVIPMGLIHNRTGTCNFDEYFSEGCAPGSPPNSRLCQLCQGSGGIPPEKCVASSHEKYFGYTGALRCLVEKGDVAFIQHSTVEENTGGKNKADWAKNLQMDDFELLCTDGRRANVMDYRECNLAEVPTHAVVVRPEKANKIRDLLERQEKRFGVNGSEKSKFMMFESQNKDLLFKDLTKCLFKVREGTTYKEFLGDKFYTVISSLKTCNPSDILQMCSFLEGK

— patent US8753698B2, “Anti-hypertensive functional food products” (Globus Egg Sciences B.V., priority 2004, dated 2014)
